Experimental data as given in PMC7228847 (Cell host & microbe, 2020).

B1: Recombinant human Fc-tagged SEMA6A extracellular domain (Fc fusion)
chain: GFPEDSEPISISHGNYTKQYPVFVGHKPGRNTTQRHRLDIQMIMIMNGTLYIAARDHIYTVDIDTSHTEEIYCSKKLTWKSRQADVDTCRMKGKHKDECHNFIKVLLKKNDDALFVCGTNAFNPSCRNYKMDTLEPFGDEFSGMARCPYDAKHANVALFADGKLYSATVTDFLAIDAVIYRSLGESPTLRTVKHDSKWLKEPYFVQAVDYGDYIYFFFREIAVEYNTMGKVVFPRVAQVCKNDMGGSQRVLEKQWTSFLKARLNCSVPGDSHFYFNILQAVTDVIRINGRDVVLATFSTPYNSIPGSAVCAYDMLDIASVFTGRFKEQKSPDSTWTPVPDERVPKPRPGCCAGSSSLERYATSNEFPDDTLNFIKTHPLMDEAVPSIFNRPWFLRTMVRYRLTKIAVDTAAGPYQNHTVVFLGSEKGIILKFLARIGNSGFLNDSLFLEEMSVYNSEKCSYDGVEDKRIMGMQLDRASSSLYVAFSTCVIKVPLGRCERHGKCKKTCIASRDPYCGWIKEGGACSHLSPNSRLTFEQDIERGNTDGLGDCHNSFVALNGHSSSLLPSTTTSDSTAQEGYESRGGMLDWKHLLDSPDSTDPLGAVSSHNHQDKKGVIRESYLKGHDQLVPVT
B2: Recombinant human Fc-tagged SEMA6B extracellular domain (Fc fusion)
chain: LFPEEPPPLSVAPRDYLNHYPVFVGSGPGRLTPAEGADDLNIQRVLRVNRTLFIGDRDNLYRVELEPPTSTELRYQRKLTWRSNPSDINVCRMKGKQEGECRNFVKVLLLRDESTLFVCGSNAFNPVCANYSIDTLQPVGDNISGMARCPYDPKHANVALFSDGMLFTATVTDFLAIDAVIYRSLGDRPTLRTVKHDSKWFKEPYFVHAVEWGSHVYFFFREIAMEFNYLEKVVVSRVARVCKNDVGGSPRVLEKQWTSFLKARLNCSVPGDSHFYFNVLQAVTGVVSLGGRPVVLAVFSTPSNSIPGSAVCAFDLTQVAAVFEGRFREQKSPESIWTPVPEDQVPRPRPGCCAAPGMQYNASSALPDDILNFVKTHPLMDEAVPSLGHAPWILRTLMRHQLTRVAVDVGAGPWGNQTVVFLGSEAGTVLKFLVRPNASTSGTSGLSVFLEEFETYRPDRCGRPGGGETGQRLLSLELDAASGGLLAAFPRCVVRVPVARCQQYSGCMKNCIGSQDPYCGWAPDGSCIFLSPGTRAAFEQDVSGASTSGLGDCTGLLRASLSEDRAGLVSVNLLVTSS

Columns and labels:
Assay in all cases: BLI
[1] = molecular target: TcsL (Paeniclostridium sordellii lethal toxin), recombinant His-tagged, full length (Paeniclostridium sordellii strain 6018, UniProt Q46342)
[2] = molecular target: B1
[3] = molecular target: B2

Binder	Kd [1]	binding result [2]	binding result [3]
B1	~40 nM		
TcsL_(1285-1804) (domain or fragment) TNVRINLDGNTRSFIVPVITTEQIRKNLSYSFYGSGGSYSLSLSPYNMNIDLNLVENDTWVIDVDNVVKNITIESDEIQKGELIENILSKLNIEDNKIILNNHTINFYGDINESNRFISLTFSILEDINIIIEIDLVSKSYKILLSGNCMKLIENSSDIQQKIDHIGFNGEHQKYIPYSYIDNETKYNGFIDYSKKEGLFTAEFSNESIIRNIYMPDSNNLFIYSSKDLKDIRIINKGDVKLLIGNYFKDDMKVSLSFTIEDTNTIKLNGVYLDENGVAQILKFMNNAKSALNTSNSLMNFLESINIKNIFYNNLDPNIEFILDTNFIISGSNSIGQFELICDKDKNIQPYFINFKIKETSYTLYVGNRQNLIVEPSYHLDDSGNISSTVINFSQKYLYGIDRYVNKVIIAPNLYTDEINITPVYKPNYICPEVIILDANYINEKINVNINDLSIRYVWDNDGSDLILIANSEEDNQPQVKIRFVNVFKSDTAADKLSFNFSDKQDVSVSKIISTFSLAA		binds	binds
B2	~60 nM		
